{"source": "paper PMC8810855", "molecular_target": "Arp2/3 complex (bovine brain) (bovine) (UniProt P61157)", "experiment": "ITC; full-length Arpin in the syringe, ATP-bound Arp2/3 complex in the cell; 25 °C; Arp buffer (20 mM HEPES pH 7.5, 100 mM KCl, 1 mM MgCl2, 1 mM EGTA, 1 mM DTT) with 0.2 mM ATP; one-site isotherm", "data": [{"substance": "full-length human Arpin (from UniProt Q7Z6K5 1-226) (natural protein)", "values": [{"measurement": "Kd", "result": 1240, "unit": "nM"}, {"measurement": "stoichiometry N", "result": 1.06}]}]}
